Results on 1 substance are retold here after article PMC6996922.

The target of assay [1] is Chk1 (UniProt O14757). Nature of the assay: biotin-peptide streptavidin pull-down, purified Chk1. The following applies: reference: NC peptide with pT916 and pS945, untreated; sites T916,S945.
For assay [2], the target named is Chk1 (UniProt O14757). Nature of the assay: biotin-peptide streptavidin pull-down from lysate. The following applies: reference: NC peptide with pT916 and pS945, untreated; sites T916,S945.

With “Claspin NC peptide, 901-955 (from UniProt Q9HAW4) NC peptide pretreated with λ-phosphatase”, the “binding against the reference” value with Chk1 [1] and in the assay with Chk1 [2] was “lost” throughout.
